The first assay addresses AHNAK2, Q8IVF2. Kind of assay: holdup assay. Also on record: key: below the threshold = too weak to quantify, mostly under pKd 3.1 to 4. Particulars: plain residues with an end cap or a label only (N-terminal biotin on a linker: ttds).
Chain of PREX1_1, Q8TCU6 (Q8TCU6 608-718): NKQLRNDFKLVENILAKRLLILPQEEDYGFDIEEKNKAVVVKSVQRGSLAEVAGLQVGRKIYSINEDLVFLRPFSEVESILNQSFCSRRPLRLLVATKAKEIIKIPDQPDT
Chain of SCRIB_4, Q14160 (Q14160 1095-1204): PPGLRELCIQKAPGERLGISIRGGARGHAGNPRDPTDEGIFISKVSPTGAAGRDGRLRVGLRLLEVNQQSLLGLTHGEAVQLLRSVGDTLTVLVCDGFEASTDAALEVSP
Chain of MAGI1_3, Q96QZ7 (Q96QZ7 638-725): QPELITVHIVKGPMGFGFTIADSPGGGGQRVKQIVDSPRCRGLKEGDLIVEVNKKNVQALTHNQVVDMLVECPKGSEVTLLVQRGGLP
Chain of AHNAK2, Q8IVF2 (Q8IVF2 108-193): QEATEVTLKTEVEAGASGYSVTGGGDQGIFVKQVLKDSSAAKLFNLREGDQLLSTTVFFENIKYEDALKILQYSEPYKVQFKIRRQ
Chain of LIMK1, P53667 (P53667 155-268): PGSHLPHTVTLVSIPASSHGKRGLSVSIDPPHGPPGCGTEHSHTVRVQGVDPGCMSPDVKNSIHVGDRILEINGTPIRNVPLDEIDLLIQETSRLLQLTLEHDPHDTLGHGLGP
For the molecule RPLPRKVSQL [DOCK4, Q8N1I0], the pKd entry is recorded as “below the threshold”.

In the case of QRQARSETLV [HPV59-E6, Q81964], the negative-log Kd (pKd) result is “below the threshold”.

Another assay has as its target T1, APBA3_2, O96018.
T1 sequence (O96018 480-570, limits assumed, looked up): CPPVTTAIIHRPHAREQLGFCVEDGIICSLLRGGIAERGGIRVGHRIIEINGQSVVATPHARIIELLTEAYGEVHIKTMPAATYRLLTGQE
Kind of assay: holdup assay. Also on record: key: below the threshold = too weak to quantify, mostly under pKd 3.1 to 4. Particulars: plain residues with an end cap or a label only (N-terminal biotin on a linker: ttds).
For the molecule RPLPRKVSQL [DOCK4, Q8N1I0], the pKd entry was “below the threshold”.

With QRQARSETLV [HPV59-E6, Q81964], the pKd entry is listed as “below the threshold”.

Another assay deals with GRIP2_2, Q9C0E4. As to the kind of experiment: holdup assay. More on the design: key: below the threshold = too weak to quantify, mostly under pKd 3.1 to 4. Particulars: plain residues with an end cap or a label only (N-terminal biotin on a linker: ttds).
Chain of GRIP2_2, Q9C0E4 (Q9C0E4 137-245): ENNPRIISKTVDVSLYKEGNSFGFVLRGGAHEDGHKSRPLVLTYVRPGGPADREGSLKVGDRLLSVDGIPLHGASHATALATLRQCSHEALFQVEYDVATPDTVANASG
Molecule RPLPRKVSQL [DOCK4, Q8N1I0] had a pKd of 4.25.

On to QRQARSETLV [HPV59-E6, Q81964], for which the pKd result is “below the threshold”.

The next assay concerns the target LIMK1, P53667. As to the kind of experiment: holdup assay. Particulars: plain residues with an end cap or a label only (N-terminal biotin on a linker: ttds). Also on record: key: below the threshold = too weak to quantify, mostly under pKd 3.1 to 4.
In the case of QRQARSETLV [HPV59-E6, Q81964], the pKd result is given as “below the threshold”.

Another assay addresses MAGI1_3, Q96QZ7. Kind of assay: holdup assay. More on the design: key: below the threshold = too weak to quantify, mostly under pKd 3.1 to 4. Particulars: plain residues with an end cap or a label only (N-terminal biotin on a linker: ttds).
Consider RPLPRKVSQL [DOCK4, Q8N1I0], for which the pKd entry was “below the threshold”.

Consider QRQARSETLV [HPV59-E6, Q81964], for which the negative logarithm of the Kd (pKd) was determined as 5.25.

Another assay deals with MAGI1_4, Q96QZ7. Kind of assay: holdup assay. Particulars: plain residues with an end cap or a label only (N-terminal biotin on a linker: ttds). Also on record: key: below the threshold = too weak to quantify, mostly under pKd 3.1 to 4.
Chain of MAGI1_4, Q96QZ7 (Q96QZ7 other isoform, or with tags, fused parts or gaps): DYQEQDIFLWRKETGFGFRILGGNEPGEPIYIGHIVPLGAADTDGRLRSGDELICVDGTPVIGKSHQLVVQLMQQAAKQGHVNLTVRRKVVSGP
As to RPLPRKVSQL [DOCK4, Q8N1I0], the pKd entry is recorded as “below the threshold”.

Turning to QRQARSETLV [HPV59-E6, Q81964], the pKd is 4.65.

The target in another assay is MAGI3_3, Q5TCQ9. Kind of assay: holdup assay. Also on record: key: below the threshold = too weak to quantify, mostly under pKd 3.1 to 4. Particulars: plain residues with an end cap or a label only (N-terminal biotin on a linker: ttds).
Chain of MAGI3_3, Q5TCQ9 (Q5TCQ9 572-655): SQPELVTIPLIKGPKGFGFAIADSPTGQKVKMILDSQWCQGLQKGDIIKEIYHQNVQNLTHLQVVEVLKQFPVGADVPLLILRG
For the molecule RPLPRKVSQL [DOCK4, Q8N1I0], the pKd entry is recorded as “below the threshold”.

QRQARSETLV [HPV59-E6, Q81964]: the pKd result is “below the threshold”.

Another assay concerns the target T2, MPDZ_3, O75970.
T2 sequence (O75970 372-473, limits assumed, looked up): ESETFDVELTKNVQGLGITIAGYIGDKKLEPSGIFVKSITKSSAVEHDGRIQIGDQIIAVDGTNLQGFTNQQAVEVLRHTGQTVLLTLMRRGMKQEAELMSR
As to the kind of experiment: holdup assay. Also on record: key: below the threshold = too weak to quantify, mostly under pKd 3.1 to 4. Particulars: plain residues with an end cap or a label only (N-terminal biotin on a linker: ttds).
Regarding RPLPRKVSQL [DOCK4, Q8N1I0], the pKd result was “below the threshold”.

Take QRQARSETLV [HPV59-E6, Q81964]: the pKd entry is reported as “below the threshold”.

For another assay, the target named is T3, MPP5, Q8N3R9.
T3 sequence (Q8N3R9 251-346, limits assumed, looked up): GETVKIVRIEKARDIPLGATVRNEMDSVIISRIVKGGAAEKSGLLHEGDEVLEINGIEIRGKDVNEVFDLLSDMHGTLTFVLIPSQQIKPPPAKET
Kind of assay: holdup assay. More on the design: key: below the threshold = too weak to quantify, mostly under pKd 3.1 to 4. Particulars: plain residues with an end cap or a label only (N-terminal biotin on a linker: ttds).
RPLPRKVSQL [DOCK4, Q8N1I0]: the pKd entry was “below the threshold”.

QRQARSETLV [HPV59-E6, Q81964]: the pKd entry is on record as “below the threshold”.

Another assay deals with NHERF2_1, Q15599. As to the kind of experiment: holdup assay. More on the design: key: below the threshold = too weak to quantify, mostly under pKd 3.1 to 4. Particulars: plain residues with an end cap or a label only (N-terminal biotin on a linker: ttds).
Chain of NHERF2_1, Q15599 (Q15599 9-91): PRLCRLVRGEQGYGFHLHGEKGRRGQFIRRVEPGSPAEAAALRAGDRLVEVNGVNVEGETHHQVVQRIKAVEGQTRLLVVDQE
For RPLPRKVSQL [DOCK4, Q8N1I0], the pKd result is “below the threshold”.

In the case of QRQARSETLV [HPV59-E6, Q81964], the pKd entry is on record as “below the threshold”.

The target in the next assay is T4, PARD6B, Q9BYG5.
T4 sequence (Q9BYG5 152-260, limits assumed, looked up): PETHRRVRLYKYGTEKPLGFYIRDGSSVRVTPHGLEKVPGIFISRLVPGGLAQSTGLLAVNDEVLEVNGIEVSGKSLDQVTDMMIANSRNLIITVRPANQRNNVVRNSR
As to the kind of experiment: holdup assay. Particulars: plain residues with an end cap or a label only (N-terminal biotin on a linker: ttds). More on the design: key: below the threshold = too weak to quantify, mostly under pKd 3.1 to 4.
As to RPLPRKVSQL [DOCK4, Q8N1I0], the negative-log Kd (pKd) result was “below the threshold”.

In the case of QRQARSETLV [HPV59-E6, Q81964], the negative logarithm of the Kd (pKd) entry is on record as “below the threshold”.

The next assay has as its target T5, PARD6G, Q9BYG4.
T5 sequence (Q9BYG4 153-261, limits assumed, looked up): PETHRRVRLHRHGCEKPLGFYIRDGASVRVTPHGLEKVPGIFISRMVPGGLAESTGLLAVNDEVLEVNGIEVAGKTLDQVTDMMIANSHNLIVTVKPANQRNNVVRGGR
Kind of assay: holdup assay. More on the design: key: below the threshold = too weak to quantify, mostly under pKd 3.1 to 4. Particulars: plain residues with an end cap or a label only (N-terminal biotin on a linker: ttds).
In the case of RPLPRKVSQL [DOCK4, Q8N1I0], the pKd entry is “below the threshold”.

QRQARSETLV [HPV59-E6, Q81964]: the pKd result is “below the threshold”.

A further assay deals with T6, PDZD2_3, O15018.
T6 sequence (O15018 581-682, limits assumed, looked up): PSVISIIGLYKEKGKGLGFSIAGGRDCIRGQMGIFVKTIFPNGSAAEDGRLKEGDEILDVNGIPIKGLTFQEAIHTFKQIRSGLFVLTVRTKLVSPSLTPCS
Kind of assay: holdup assay. Also on record: key: below the threshold = too weak to quantify, mostly under pKd 3.1 to 4. Particulars: plain residues with an end cap or a label only (N-terminal biotin on a linker: ttds).
As to RPLPRKVSQL [DOCK4, Q8N1I0], the pKd entry is recorded as “below the threshold”.

As to QRQARSETLV [HPV59-E6, Q81964], the negative logarithm of the Kd (pKd) entry is “below the threshold”.

The next assay concerns the target T7, PDZD8, Q8NEN9.
T7 sequence (Q8NEN9 361-459, limits assumed, looked up): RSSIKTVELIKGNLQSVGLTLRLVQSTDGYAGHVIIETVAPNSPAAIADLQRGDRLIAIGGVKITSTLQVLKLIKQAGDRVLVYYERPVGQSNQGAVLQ
As to the kind of experiment: holdup assay. Also on record: key: below the threshold = too weak to quantify, mostly under pKd 3.1 to 4. Particulars: plain residues with an end cap or a label only (N-terminal biotin on a linker: ttds).
For RPLPRKVSQL [DOCK4, Q8N1I0], the pKd entry is “below the threshold”.

As for QRQARSETLV [HPV59-E6, Q81964], the pKd entry is recorded as “below the threshold”.

The target in a further assay is PDZD9, Q8IXQ8. As to the kind of experiment: holdup assay. More on the design: key: below the threshold = too weak to quantify, mostly under pKd 3.1 to 4. Particulars: plain residues with an end cap or a label only (N-terminal biotin on a linker: ttds).
Chain of PDZD9, Q8IXQ8 (Q8IXQ8 23-120): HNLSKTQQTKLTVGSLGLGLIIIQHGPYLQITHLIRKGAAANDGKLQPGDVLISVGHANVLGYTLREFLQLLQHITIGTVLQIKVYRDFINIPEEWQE
As for RPLPRKVSQL [DOCK4, Q8N1I0], the negative-log Kd (pKd) result was “below the threshold”.

For the molecule QRQARSETLV [HPV59-E6, Q81964], the negative logarithm of the Kd (pKd) entry is given as “below the threshold”.

The target of another assay is T8, PDZRN3_2, Q9UPQ7.
T8 sequence (Q9UPQ7 414-513, limits assumed, looked up): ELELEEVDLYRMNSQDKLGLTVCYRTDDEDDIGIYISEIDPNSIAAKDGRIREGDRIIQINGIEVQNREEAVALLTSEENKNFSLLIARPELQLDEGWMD
Kind of assay: holdup assay. Particulars: plain residues with an end cap or a label only (N-terminal biotin on a linker: ttds). Also on record: key: below the threshold = too weak to quantify, mostly under pKd 3.1 to 4.
With RPLPRKVSQL [DOCK4, Q8N1I0], the pKd result is “below the threshold”.

On to QRQARSETLV [HPV59-E6, Q81964], for which the pKd result is “below the threshold”.

The next assay addresses PREX1_1, Q8TCU6. Kind of assay: holdup assay. More on the design: key: below the threshold = too weak to quantify, mostly under pKd 3.1 to 4. Particulars: plain residues with an end cap or a label only (N-terminal biotin on a linker: ttds).
Consider RPLPRKVSQL [DOCK4, Q8N1I0], for which the pKd result was “below the threshold”.

On to QRQARSETLV [HPV59-E6, Q81964], for which the pKd entry is “below the threshold”.

The target of the next assay is T9, PREX2_2, Q70Z35.
T9 sequence (Q70Z35 672-764, limits assumed, looked up): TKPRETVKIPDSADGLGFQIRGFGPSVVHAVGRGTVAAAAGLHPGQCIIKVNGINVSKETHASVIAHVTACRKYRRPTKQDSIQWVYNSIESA
Kind of assay: holdup assay. More on the design: key: below the threshold = too weak to quantify, mostly under pKd 3.1 to 4. Particulars: plain residues with an end cap or a label only (N-terminal biotin on a linker: ttds).
Regarding RPLPRKVSQL [DOCK4, Q8N1I0], the pKd entry is “below the threshold”.

With QRQARSETLV [HPV59-E6, Q81964], the pKd result is reported as “below the threshold”.

Another assay has as its target SCRIB_4, Q14160. Kind of assay: holdup assay. Particulars: plain residues with an end cap or a label only (N-terminal biotin on a linker: ttds). Also on record: key: below the threshold = too weak to quantify, mostly under pKd 3.1 to 4.
Regarding RPLPRKVSQL [DOCK4, Q8N1I0], the pKd entry is “below the threshold”.

With QRQARSETLV [HPV59-E6, Q81964], the pKd result is on record as “below the threshold”.

A further assay concerns the target T10, SHANK2, Q9UPX8.
T10 sequence (Q9UPX8 621-730, limits assumed, looked up): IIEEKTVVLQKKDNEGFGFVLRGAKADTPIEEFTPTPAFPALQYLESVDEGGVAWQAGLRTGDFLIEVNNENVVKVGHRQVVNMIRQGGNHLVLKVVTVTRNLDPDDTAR
Kind of assay: holdup assay. Also on record: key: below the threshold = too weak to quantify, mostly under pKd 3.1 to 4. Particulars: plain residues with an end cap or a label only (N-terminal biotin on a linker: ttds).
In the case of RPLPRKVSQL [DOCK4, Q8N1I0], the pKd result is reported as “below the threshold”.

Take QRQARSETLV [HPV59-E6, Q81964]: the pKd turned out to be 4.47.

The target in the next assay is T11, SHANK3, Q9BYB0.
T11 sequence (Q9BYB0 641-750, limits assumed, looked up): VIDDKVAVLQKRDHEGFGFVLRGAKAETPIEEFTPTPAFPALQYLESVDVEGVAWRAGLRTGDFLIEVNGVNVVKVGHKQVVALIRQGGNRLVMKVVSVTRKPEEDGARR
As to the kind of experiment: holdup assay. Particulars: plain residues with an end cap or a label only (N-terminal biotin on a linker: ttds). More on the design: key: below the threshold = too weak to quantify, mostly under pKd 3.1 to 4.
Take RPLPRKVSQL [DOCK4, Q8N1I0]: the pKd result is “below the threshold”.

On to QRQARSETLV [HPV59-E6, Q81964], for which the pKd worked out at 4.22.

A further assay has as its target T12, SHROOM2, Q13796.
T12 sequence (Q13796 21-118, limits assumed, looked up): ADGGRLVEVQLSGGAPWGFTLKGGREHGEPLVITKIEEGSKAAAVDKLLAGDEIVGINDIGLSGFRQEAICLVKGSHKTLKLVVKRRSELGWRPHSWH
Kind of assay: holdup assay. More on the design: key: below the threshold = too weak to quantify, mostly under pKd 3.1 to 4. Particulars: plain residues with an end cap or a label only (N-terminal biotin on a linker: ttds).
For RPLPRKVSQL [DOCK4, Q8N1I0], the pKd result is “below the threshold”.

Consider QRQARSETLV [HPV59-E6, Q81964], for which the pKd entry is listed as “below the threshold”.

The next assay deals with T13, SNTA1, Q13424.
T13 sequence (Q13424 82-180, limits assumed, looked up): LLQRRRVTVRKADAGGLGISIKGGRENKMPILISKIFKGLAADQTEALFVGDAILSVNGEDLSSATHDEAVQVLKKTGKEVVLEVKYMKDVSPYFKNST
Kind of assay: holdup assay. Particulars: plain residues with an end cap or a label only (N-terminal biotin on a linker: ttds). More on the design: key: below the threshold = too weak to quantify, mostly under pKd 3.1 to 4.
As to RPLPRKVSQL [DOCK4, Q8N1I0], the negative-log Kd (pKd) entry was “below the threshold”.

With QRQARSETLV [HPV59-E6, Q81964], the pKd was 3.99.

The values are drawn from paper PMC9482650, “Quantitative fragmentomics allow affinity mapping of interactomes” (Nature Communications, 2022).
